Experimental findings from patent US20050142101A1 are described below.

In assay [1] the target is CCL11 (eotaxin) (Homo sapiens (Human)) (UniProt P51671).
Another assay concerns the target CCL14[9-74] (human) (UniProt Q16627).
For assay [2], the target named is CXCL12 (SDF-1α) (Homo sapiens (Human)) (UniProt P48061).

As for “porcine kidney DPP IV/CD26 (from UniProt P22411) (enzyme)”, the results for the CD26/DPP IV processing in vitro, MALDI mass spectrometry (time to complete processing) (in assay [1]; with CCL14[9-74] (human); in assay [2]) were 1 h, 12 h and 10 min, respectively.
